{"source": "patent US20240158477A1", "key": {"[1]": {"target": "RBD-Fc (SARS-CoV-2 S protein amino acids 319-541 with human IgG1 Fc) (SARS-CoV-2; human) (UniProt P0DTC2)"}, "[2]": {"target": "SARS-CoV-2 S protein (wildtype) (SARS-CoV-2) (UniProt P0DTC2)", "test": "cell-based or functional assay"}}}
{"substance": "Fc tagged VHH72 (Fc fusion)", "values": [{"measurement": "EC50 (read off the curve)", "setting": "[1]", "value": 0.2, "unit": "nM"}, {"measurement": "IC50, authentic SARS-CoV-2 neutralization on Vero-E6 cells (viral RNA by RT-PCR)", "setting": "[2]", "value": 13.8, "unit": "nM"}]}
